Assay [1] addresses T1, human PSMA on tumor cells (LNCaP, MDA-PCA-2B, VCAP, 22Rv1) (human, UniProt Q04609 1-750). The experiment in a line: cell-based or functional assay.
The target in assay [2] is T2, cynomolgus PSMA extracellular domain (PSMW1), 6His and Avi tag (cynomolgus, UniProt Q04609 44-750 (human entry), biotinylated in bead-based selections and the ELISA screen).
T2 construct: Cloned along with a 6His and Avi tag; also called cynomolgus monkey PSMA; pan 230
T2 chain: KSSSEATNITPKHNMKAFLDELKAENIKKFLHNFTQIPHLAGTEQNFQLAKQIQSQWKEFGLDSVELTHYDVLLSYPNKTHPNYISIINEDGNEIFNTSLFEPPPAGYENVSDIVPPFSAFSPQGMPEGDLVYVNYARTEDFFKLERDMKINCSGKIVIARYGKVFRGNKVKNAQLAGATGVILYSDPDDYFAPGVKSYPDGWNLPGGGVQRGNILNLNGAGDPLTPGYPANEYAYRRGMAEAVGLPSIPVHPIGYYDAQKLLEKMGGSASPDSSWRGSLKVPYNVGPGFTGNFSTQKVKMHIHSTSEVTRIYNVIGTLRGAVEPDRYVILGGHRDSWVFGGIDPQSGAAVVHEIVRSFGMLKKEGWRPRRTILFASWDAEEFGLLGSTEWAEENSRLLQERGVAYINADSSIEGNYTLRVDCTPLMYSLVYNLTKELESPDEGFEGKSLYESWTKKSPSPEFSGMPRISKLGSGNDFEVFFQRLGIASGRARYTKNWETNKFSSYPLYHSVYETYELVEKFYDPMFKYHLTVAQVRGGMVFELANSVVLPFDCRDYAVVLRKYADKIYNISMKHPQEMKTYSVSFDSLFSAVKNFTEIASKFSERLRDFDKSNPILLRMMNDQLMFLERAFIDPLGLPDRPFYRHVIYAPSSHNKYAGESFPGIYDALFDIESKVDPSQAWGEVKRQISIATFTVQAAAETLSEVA
The experiment in a line: hit from CIS-display panning and ELISA screen on PSMA of this species (column Antigen species). (In general: An ELISA detects its analyte on a solid surface through an enzyme-linked reagent.)

Assay [3] has as its target T1, human PSMA on tumor cells (LNCaP, …). The experiment in a line: cell-based or functional assay. This is another data set of the same source.
Assay [4] concerns the target T3, chimpanzee PSMA extracellular domain (PSMW8), 6His and Avi tag (chimpanzee, UniProt Q04609 44-750 (human entry), biotinylated in bead-based selections and the ELISA screen).
T3 construct: Cloned along with a 6His and Avi tag; Buffer with ZnCl2 to stabilise PSMA dimerisation; also called pan 229
T3 chain: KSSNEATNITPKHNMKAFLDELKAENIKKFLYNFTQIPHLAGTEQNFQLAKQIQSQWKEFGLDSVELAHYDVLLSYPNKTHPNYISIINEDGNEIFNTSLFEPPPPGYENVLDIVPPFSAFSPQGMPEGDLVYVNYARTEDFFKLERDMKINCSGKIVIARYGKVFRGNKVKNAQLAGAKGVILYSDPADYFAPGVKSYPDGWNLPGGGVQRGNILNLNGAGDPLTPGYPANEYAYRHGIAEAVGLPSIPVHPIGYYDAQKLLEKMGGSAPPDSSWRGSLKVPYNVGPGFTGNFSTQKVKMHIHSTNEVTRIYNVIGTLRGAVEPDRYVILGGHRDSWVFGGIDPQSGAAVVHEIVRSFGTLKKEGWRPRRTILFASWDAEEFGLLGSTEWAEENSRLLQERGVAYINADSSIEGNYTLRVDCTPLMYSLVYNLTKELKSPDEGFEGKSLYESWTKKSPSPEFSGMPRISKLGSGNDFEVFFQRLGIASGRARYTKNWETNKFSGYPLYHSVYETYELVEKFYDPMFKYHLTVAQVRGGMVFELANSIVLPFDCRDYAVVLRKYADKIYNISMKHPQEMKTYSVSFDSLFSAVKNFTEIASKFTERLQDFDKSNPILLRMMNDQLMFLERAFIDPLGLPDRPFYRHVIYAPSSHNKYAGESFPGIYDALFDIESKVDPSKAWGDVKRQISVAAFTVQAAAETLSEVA
The experiment in a line: hit from CIS-display panning and ELISA screen on PSMA of this species (column Antigen species).

For assay [5], the target named is T4, cell-surface CD3E on primary human T cells (human, UniProt P07766 23-207).
T4 construct: whole, on cells; On the cells CD3E stands in the CD3/T cell receptor complex; also called human CD3
T4 sequence (P07766 23-207): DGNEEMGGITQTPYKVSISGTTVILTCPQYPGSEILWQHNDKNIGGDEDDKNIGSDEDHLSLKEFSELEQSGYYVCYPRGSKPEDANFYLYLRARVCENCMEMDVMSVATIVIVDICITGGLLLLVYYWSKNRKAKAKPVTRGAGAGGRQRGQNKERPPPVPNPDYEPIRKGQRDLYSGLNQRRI
The assay can be described thus: flow cytometry on primary human T cells, anti-human IgG Alexa Fluor 647 secondary. As to the method:
The resulting panel of anti-CD3 antibodies was tested for binding against cell-surface CD3E on primary human T cells. To do this, binding of antibodies from expression supernatants was visualized using a polyclonal anti-human secondary antibody and analyzed by flow cytometry. Briefly, binding of anti-CD3 antibodies to cell-surface CD3E was assessed by flow cytometry using primary Human T lymphocytes purified by negative selection (Biological Specialty, Colmar, USA). Expression supernatants or purified antibodies were normalized to 10 μg/ml in media or FACS buffer (BD BioSciences), respectively. 2×10⁵ cells were aliquoted into wells of a 96 well round-bottomed plate (CoStar) for labeling. Antibodies in expression supernatant were added to cells and incubated for 45 min at 4° C. Following centrifugation at 1300 rpm for 3 min and removal of supernatant, 50 μL of anti-human IgG (H+L) Alexa Fluor 647 secondary antibody (Life technologies Inc.) was incubated with the cells at a final concentration of 10 μg/mL for 30 min at 4° C. away from direct light. Following washing and resuspension in 30 μL FACs buffer (BD BioSciences). Sample collection was performed on an Intellicyt HTFC system using ForeCyt software. Viable single cells were gated prior to analysis of binding using the green or red fixable live/dead dyes (Life Technologies Inc.) and forward/side scatter area and height parameters, respectively. Graphs were generated in GraphPad Prism version 5 using mean fluorescence intensity values.
Two in-house phage-derived antibodies with the same Fc region as the therapeutic antibodies were used as controls: G11 (HC SEQ ID NO:176, LC SEQ ID NO:177), a non-cyno cross-reactive, agonistic antibody was used as a positive control and CD3B94 (HC-SEQ ID NO:178, LC—SEQ ID NO:179) a non-binder/non-agonistic antibody was used to assess non-specific binding. The commercial SP34 antibody was not used as a comparator in this assay since it is a mouse antibody and the use of a different secondary detection reagent would have prohibited direct comparison with the variants tested.
Background: In flow cytometry, cells or beads pass a laser one at a time.

T1 sequence (Q04609 whole entry, the tested form may be a part): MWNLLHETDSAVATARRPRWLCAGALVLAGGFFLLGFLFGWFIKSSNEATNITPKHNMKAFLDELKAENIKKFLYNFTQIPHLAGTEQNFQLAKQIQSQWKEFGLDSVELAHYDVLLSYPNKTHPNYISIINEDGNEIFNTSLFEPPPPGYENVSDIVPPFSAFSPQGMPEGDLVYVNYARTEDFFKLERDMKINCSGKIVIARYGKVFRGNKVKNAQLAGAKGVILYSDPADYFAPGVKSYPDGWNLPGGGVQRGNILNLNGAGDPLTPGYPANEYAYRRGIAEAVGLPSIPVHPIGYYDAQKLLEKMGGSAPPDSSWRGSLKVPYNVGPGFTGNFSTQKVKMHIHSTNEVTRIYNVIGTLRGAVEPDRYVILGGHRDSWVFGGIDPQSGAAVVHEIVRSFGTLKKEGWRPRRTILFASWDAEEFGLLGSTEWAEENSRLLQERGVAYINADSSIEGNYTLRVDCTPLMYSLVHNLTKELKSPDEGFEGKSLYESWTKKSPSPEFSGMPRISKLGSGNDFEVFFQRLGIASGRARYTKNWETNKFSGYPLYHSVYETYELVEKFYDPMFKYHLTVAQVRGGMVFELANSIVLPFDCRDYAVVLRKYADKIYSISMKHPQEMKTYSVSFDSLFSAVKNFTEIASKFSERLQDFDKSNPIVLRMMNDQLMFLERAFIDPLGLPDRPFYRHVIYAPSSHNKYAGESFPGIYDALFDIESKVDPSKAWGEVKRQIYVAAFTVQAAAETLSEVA

B1: P258AR6P1070_A05 (designed binder)
chain: LPAPKNLVVSRVTEDSARLSWTIDEQRDWFDSFLIQYQESEKVGEAIVLTVPGSERSYDLTGLKPGTEYTVSIYGVYHVYRSNPLSAIFTT
notes: not shown: C-terminal poly-histidine tag
Turning to B1, in assay [1], the “LNCaP IC50 (nM), cytotoxicity of the FN3 domain-vcMMAF conjugate (CellTiter-Glo)” value (shortened to “LNCaP IC50 (nM), cytotoxicity”) amounted to 4.6 nM. For the same molecule, the binding result in assay [2] is “binds”.

B2: P258AR6P1071_F04 (designed binder)
chain: LPAPKNLVVSRVTEDSARLSWVIDEQRDWFDSFLIQYQESEKVGEAIVLTVPGSERSYDLTGLKPGTEYTVSIYGVYHVYRSNPLSAIFTT
notes: as for B1
Turning to B2, the “LNCaP IC50 (nM), cytotoxicity” value in assay [1] came out at 5.4 nM. Also, the binding result in assay [2] is recorded as “binds”.

B3: P258AR6P1070_F09 (designed binder)
chain: LPAPKNLVVSRVTEDSARLSWTIDEQRDWFESFLIQYQESEKVGEAIVLTVPGSERSYDLTGLKPGTEYTVSIYGVYHVYRSNPLSAIFTT
notes: as for B1
For B3, the “LNCaP IC50 (nM), cytotoxicity” value in assay [1] came out at 0.9 nM. In addition, in assay [2], the binding result was “binds”.

B4: P258AR6P1071_G03 (designed binder)
chain: LPAPKNLVVSRVTEDSARLSWDIDEQRDWFDSFLIQYQESEKVGEAIVLTVPGSERSYDLTGLKPGTEYTVSIYGVYHVYRSNPLSAIFTT
notes: as for B1
Consider B4, for which the “LNCaP IC50 (nM), cytotoxicity” value in assay [1] turned out to be 5.8 nM. In assay [2], the binding result is given as “binds”.

B5: P258AR6P1071_D02 (designed binder)
chain: LPAPKNLVVSRVTEDSARLSWAIDEQRDWFESFLIQYQESEKVGEAIVLTVPGSERSYDLTGLKPGTEYTVSIYGVYHVYRSNPLSAIFTT
notes: as for B1
In the case of B5, the “LNCaP IC50 (nM), cytotoxicity” value in assay [1] was 0.8 nM. Moreover, the binding result in assay [2] is recorded as “binds”.

B6: P234CR9_H01 (designed binder)
chain: LPAPKNLVVSRVTEDSARLSWEWWVIPGDFDSFLIQYQESEKVGEAIVLTVPGSERSYDLTGLKPGTEYTVSIYGVVNSGQWNDTSNPLSAIFTT
notes: as for B1
Turning to B6, the “LNCaP IC50 (nM), cytotoxicity” value in assay [1] was determined as 22.6 nM. Further, in assay [3], the “LNCaP cells IC50 (nM), cytotoxicity of FN3 domain-drug conjugate” value (“LNCaP cells IC50 (nM), cytotoxicity” for short) worked out at 22.6 nM; the “MDA-PCA-2B cells IC50 (nM), cytotoxicity of FN3 domain-drug conjugate” value (from here on “MDA-PCA-2B cells IC50 (nM), cytotoxicity”) was 151 nM; the “VCAP cells IC50 (nM), cytotoxicity of FN3 domain-drug conjugate” value (shortened to “VCAP cells IC50 (nM), cytotoxicity”) worked out at 401 nM. In assay [2], the binding result is given as “binds”.

B7: P229CR5P819_H11 (designed binder)
chain: LPAPKNLVVSRVTEDSARLSWDIDEQRDWFDSFLIQYQESEKVGEAIVLTVPGSERSYDLTGLKPGTEYTVSIYGVYHVYRSSNPLSAIFTT
notes: In the cytotoxicity assays it was conjugated to vc-MMAF (cysteine-maleimide chemistry or sortase reaction); also called P229CR9P819-H11; not shown: C-terminal poly-histidine tag
Turning to B7, the “LNCaP IC50 (nM), cytotoxicity” value in assay [1] amounted to 20.7 nM. For the same molecule, in assay [3], the “LNCaP cells IC50 (nM), cytotoxicity” value worked out at 9.3 nM; the “MDA-PCA-2B cells IC50 (nM), cytotoxicity” value worked out at 107 nM; the “VCAP cells IC50 (nM), cytotoxicity” value was found to be 231 nM. Moreover, the binding result in assay [4] is “binds”.

B8: P234CR9_A7 (designed binder)
chain: LPAPKNLVVSRVTEDSARLSWGEQFTIFDSFLIQYQESEKVGEAIVLTVPGSERSYDLTGLKPGTEYTVSIYGASGYEWFHAFGSSNPLSAIFTT
notes: also called P234CR9_A07; not shown: C-terminal poly-histidine tag
On to B8, for which the “LNCaP IC50 (nM), cytotoxicity” value in assay [1] came to 8.8 nM. In addition, the binding result in assay [2] is “binds”.

B9: P233FR9P1001_B5-5 (designed binder)
chain: LPAPKNLVVSRVTEDSARLSWTAPDAAFDSFTIGYWEWDDDGEAIVLTVPGSERSYDLTGLKPGTEYPVYIAGVKGGQWSFPLSAIFTT
notes: as for B1
B9: the “LNCaP IC50 (nM), cytotoxicity” value in assay [1] is 0.5 nM. For the same molecule, in assay [4], the binding result is recorded as “binds”.

B10: P233FR9P1001_D9 (designed binder)
chain: LPAPKNLVVSRVTEDSARLSWTAPDAAFDSFPIGYWEWDDDGEAIVLTVPGSERSYDLTGLKPGTEYWVYIAGVKGGQWSFPLSAIFTT
notes: as for B1
Take B10: the “LNCaP IC50 (nM), cytotoxicity” value in assay [1] was 1.4 nM. In addition, the binding result in assay [4] was “binds”.

B11: P233FR9P1001_H3-1 (designed binder)
chain: LPAPKNLVVSRVTEDSARLSWTAPDAAFDSFPIGYWEWDDDGEAIVLTVPGSERSYDLTGLKPGTEYHVYIAGVKGGQWSFPLSAIFTT
notes: as for B1
Take B11: the “LNCaP IC50 (nM), cytotoxicity” value in assay [1] was found to be 0.4 nM. Further, in assay [3], the “LNCaP cells IC50 (nM), cytotoxicity” value was determined as 0.4 nM; the “MDA-PCA-2B cells IC50 (nM), cytotoxicity” value came to 4.6 nM; the “VCAP cells IC50 (nM), cytotoxicity” value is 15.2 nM. Besides, the binding result in assay [4] was “binds”.

B12: CD3B144 (antibody, human IgG1, V domains shown)
VH: EVQLVESGGGLVQPGGSLRLSCAASGFTFNTYAMNWVRQAPGKGLEWVARIRSKYNNYATYYAASVKGRFTISRDDSKNSLYLQMNSLKTEDTAVYYCARHGNFGNSYVSWFAYWGQGTLVTVSS
VL: QSVLTQPPSVSAAPGQKVTISCRSSTGAVTTSNYANWVQQLPGTAPKGLIGGTNKRAPGIPDRFSGSKSGTSATLGITGLQTGDEADYYCALWYSNLWVFGGGTKLTVL
notes: Humanized SP34 variant; human IgG1 constant region with L234A, L235A, F405L; human lambda constant region; also called CDB144
With B12, the binding result in assay [5] was “no binding”.

B13: CD3B152 (antibody, human IgG1, V domains shown)
VH: EVQLLESGGGLVQPGGSLRLSCAASGFTFNTYAMNWVRQAPGKGLEWVARIRSKYNNYATYYADSVKGRFTISRDNSKNTLYLQMNSLRAEDTAVYYCVKHGNFGNSYVSWFAYWGQGTLVTVSS
VL: QSVLTQPPSVSAAPGQKVTISCRSSTGAVTTSNYANWVQQLPGTAPKGLIGGTNKRAPGIPDRFSGSKSGTSATLGITGLQTGDEADYYCALWYSNLWVFGGGTKLTVL
notes: Humanized SP34 variant; human IgG1 constant region with L234A, L235A, F405L; human lambda constant region; also called CDB152
For B13, in assay [5], the binding result is given as “no binding”.

The record behind these values is patent US20160347840A1 (Janssen / Centocor, published 2016).
